# Results: the supplement of paper PMC6755084
# B1: F1*; the commonest letter at each place (parent)
# chain: GAGACCGCAACTGAAAAGTTGTTATCACTTGTCGTAAGACACTTTGGATGGGTTGAAGTTCTGCACGTAGAAGCAAAAGGC
# B2: minF1; a variant is named by its letters at N, in order (parent)
# chain: GAGACCGCAACTGAAAAGTTGTTNNNNAANNNNGGNTNNATTTCTGCACGTAGAAGCAAAAGGC
# Variants of: B1
# Experiment: fraction ligated after 30 min (ligated reads / total reads); higher = more ligase activity
# Settings: with F1*sub RNA substrate (template-directed ligation), 42 °C
# Method in brief: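 Ligase ribozyme variants were made from oligo-pool templates by PCR amplification, T7 transcription and gel purification. After gel separation, ligated and unligated bands were reverse transcribed with barcoded primers and sequenced on a MiSeq, with core bases filtered at quality ≥20. The fraction ligated for each variant was the number of ligated reads divided by total reads.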
row,Variant,fraction ligated
1,G31C G55C,0.14
2,C33A G46T,0.803
3,C26T A41T,0.796
4,A41C G47C,0.177
5,T25A T44A,0.762
6,A48G G55A,0.787
7,A36T T44C,0.82
8,C26G T35G,0.784
9,G34T G47A,0.764
10,G38A T44G,0.848
11,G34T T44A,0.792
12,A39T T45A,0.744
13,T25C A36G,0.816
14,A37G G46C,0.81
15,T25C T45A,0.295
16,A27T A36C,0.868
17,C26A C40A,0.755
18,A24G A57G,0.762
19,T29C G55A,0.815
20,A48T G50T,0.392
21,C40G A57T,0.79
22,T30A T49G,0.754
23,C28T T45C,0.284
24,G55C A56T A57C,0.00477
25,C33T T35A,0.879
26,T43C A57G,0.785
27,T32C G38T,0.768

row,Variant,fraction ligated
1,G31T T44G,0.764
2,G34T C42A,0.849
3,A27C T30G,0.825
4,T23A,0.837
5,T25C A57T,0.682
6,T23C A37T,0.796
7,T35A,0.836
8,T23G A36G,0.885
9,T30A A56C,0.773
10,A39T G50A,0.239
11,C40T G46A,0.809
12,G34A T44A,0.842
13,G34A T44G,0.844
14,A36G A39G,0.862
15,G50A G55A,0.178
16,A39G T49G,0.791
17,G50T A56C,0.0586
18,C28A G34A,0.812
19,G46T G47T,0.0382
20,T43C T44C,0.781
21,T30A T43C,0.794
22,G38A A56C,0.778
23,T23C A48T,0.0663
24,A39G A57C,0.821
25,G50A A56T,0.0351
26,G34T G55A,0.835
27,A27T A37G,0.846

# Variants of: B2
# Experiment: fraction ligated after 30 min (ligated reads / total reads); higher = more ligase activity
# Settings: with F1*subA RNA substrate (template-directed ligation), 42 °C
# Description: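 Chip-synthesised pool of minF1 ligase ribozyme variants (single and double substitutions, single to quadruple deletions, bulge and P2 designed variants) was transcribed with T7 and reacted as a pool with excess substrate F1*subA for 30 min at 42 C in 50 mM EPPS pH 8.5, 25 mM MgCl2. Ligated and unligated RNAs were separated by PAGE, barcoded by RT and deep sequenced; fraction ligated = ligated reads / total reads, relative activity = FL / FL of wild-type minF1 (0.76); sequencing FL correlated with PAGE (R2 = 0.98). Sequences are the DNA template of the ribozyme.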
row,Variant,fraction ligated
1,CAGAGGATTGA T23A A29T,0.00274
2,TAAAGGTGTGA T23A A29T,0.00275
3,TAGAGGAGTGA A29T,0.00156
4,AAGAGGAGTGA A29T,0.00209
5,TAAAGATGTGA A28T A29G,0.00323
6,TAGAGGATTGA T23A,0.00191
7,CAGAGGAGTGA T23A,0.00148
8,AAAAGGTGTGA A29T,0.00306
9,CAAAGATGTGA A29T,0.00371
10,CAAAGATGTGA A29G,0.00439
11,TAGAGATGTGA T23A,0.00319
12,TAGAGGATGTA T23A,0.00339
13,CAAAGGATGTG T23A A29T,0.00761
14,AAAAGGATGTA A29T,0.00276
15,TAGAGGAGTGA,0.00669
16,TAGAGGATGTA T23A A29T,0.00136
17,CAGAGGAGTGA A29T,0
18,CAGAGGAGTGA,0.0058
19,AAAAGATGTGA A29T,0.00419
20,AAAAGATGTGA A29G,0.00274
21,CAAAGGATGTA A29T,0.00185
22,TAAAGGATGTA A29T,0.00265
23,CAAAGGATGTA T23A A29T,0.000678
24,TAGAGGATGTG T23A,0.00675
25,TAGAGGATTGA T23A A29T,0.00233
26,CAAAGATGTGA T23A A28T A29G,0.0035
27,TAGAGGTGTGA A29T,0.00319
28,TAAAGGATTGA A29T,0.00151
29,CAAAGGAGTGA T23A A29T,0.00224
